Measured values published in US20220403022A1.

Target: human TIGIT on cells (primary T cells, transfected HEK293 cells, Jurkat reporter cells, NK cells) (human) (UniProt Q495A1)
Experiment: cell-based or functional assay

Sequence of human TIGIT on cells (primary T cells, transfected HEK293 cells, Jurkat reporter cells, NK cells) (human) (Q495A1 22-244 limits assumed): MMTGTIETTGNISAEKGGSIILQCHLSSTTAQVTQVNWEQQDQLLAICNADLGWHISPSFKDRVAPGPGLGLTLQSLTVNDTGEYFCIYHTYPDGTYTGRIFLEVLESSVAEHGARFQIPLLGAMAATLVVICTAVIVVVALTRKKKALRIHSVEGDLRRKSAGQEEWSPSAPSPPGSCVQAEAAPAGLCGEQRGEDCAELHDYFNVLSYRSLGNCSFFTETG

Isotype control (antibody)
Max RLU (potency): 575 RLU
